The values that follow come from patent US20170275344A1, “POLYPEPTIDES AND USES THEREOF AS A DRUG FOR TREATMENT OF AUTOIMMUNE DISORDERS” (Compugen Ltd., priority 2014, published 2017).

This assay concerns SJL mice. The assay is described as follows: PLP139-151/CFA R-EAE with Treg inactivation by anti-CD25. The format is in vivo, mouse. The procedure:
In two studies, EAE was induced in SJL mice via PLP139-151/CFA priming as described under Methods, below. The mice were divided into 4 and 8 groups in Study I and Study II, respectively groups (n=10/treatment group). In both studies, groups 1-4 the mice received two injections separated by one day, of either Control Ab or anti-CD25 (clone 7D4 at 500 μg/injection i.p. (BioXCell Cat# BE0013; West Lebanon, N.H.)) starting at the onset of disease remission (Day +19 and 21 in Study I or Day +20 and 22 in Study II), followed by treatment with either mIgG2a Control Ig or C1ORF32 ECD-Fc (100 ug/dose; 3×/wk; 2 wks) beginning on the day of the second treatment with anti CD25 (Day 21 in study I and day 22 in study II).
To study the importance of Treg function for maintenance of tolerance by C1ORF32 ECD-Fc a second set of mice was set in study II, groups 5-8, in which mice were treated with Control Ig or C1ORF32 ECD-Fc (SEQ ID NO:42) first in a similar regimen as groups 1-4 (beginning on Day +22), and then two weeks following the last C1ORF32 ECD-Fc (SEQ ID NO:42) treatment, on days 46 and 48, mice received either Control Ab or anti-CD25 (500 μg/injection) to inactivate the Treg cells. The mice were followed for the level of disease severity.
Study I Treatment Groups (n=10 Mice Per Group) 1. Control Ab (Day +19 and 21) plus Control Ig (100 ug/dose; 3×/wk; 2 wks; beginning on Day +21) 2. Anti-CD25 Ab (Day +19 and 21) plus Control Ig (100 ug/dose; 3×/wk; 2 wks; beginning on Day +21) 3. Control Ab (Day +19 and 21) plus C1ORF ECD-Fc (SEQ ID NO:42) (100 ug/dose; 3×/wk; 2 wks; beginning on Day +21) 4. Anti-CD25 Ab (Day +19 and 21) plus C1ORF ECD-Fc (SEQ ID NO:42) (100 ug/dose; 3×/wk; 2 wks; beginning on Day +21) Study II Treatment Groups (n=10 Mice Per Group) 1. Control Ab (Day +20 and 22) plus Control Ig (100 ug/dose; 3×/wk; 2 wks; beginning on Day +22) 2. Anti-CD25 Ab (Day +20 and 22) plus Control Ig (100 ug/dose; 3×/wk; 2 wks; beginning on Day +22) 3. Control Ab (Day +20 and 22) plus C1ORF32 ECD-Fc (SEQ ID NO:42) (100 ug/dose; 3×/wk; 2 wks; beginning on Day +22) 4. Anti-CD25 Ab (Day +20 and 22) plus C1ORF32 ECD-Fc (SEQ ID NO:42) (100 ug/dose; 3×/wk; 2 wks; beginning on Day +22) 5. Control Ig (100 ug/dose; 3×/wk; 2 wks; beginning on Day +22) plus Control Ab (Day +46 and 48) 6. […]
SJL mice were primed with 50 μg PLP139-151/CFA to induce R-EAE, and followed for disease through the acute phase of disease and into disease remission. […] Clinical results are expressed as the mean clinical score.
Mice were followed for disease and scored on a 0-5 scale per standard lab protocol as follows: 0, no abnormality; 1, limp tail; 2, limp tail and hind limb weakness; 3, hind limb paralysis; 4, hind limb paralysis and forelimb weakness; and 5, moribund.

B1: C1ORF32 ECD-Fc (SEQ ID NO:42): fusion protein of human C1ORF32 ECD fused to mouse immunoglobulin Fc (human-mouse fusion protein) (protein)
chain: LQVTVPDKKKVAMLFQPTVLRCHFSTSSHQPAVVQWKFKSYCQDRMGESLGMSSTRAQSLSKRNLEWDPYLDCLDSRRTVRVVASKQGSTVTLGDFYRGREITIVHDADLQIGKLMWGDSGLYYCIITTPDDLEGKNEDSVELLVLGRTGLLADLLPSFAVEIMGSENLYFQGSGEPRGPTIKPCPPCKCPAPNLLGGPSVFIFPPKIKDVLMISLSPIVTCVVVDVSEDDPDVQISWFVNNVEVHTAQTQTHREDYNSTLRVVSALPIQHQDWMSGKEFKCKVNNKDLPAPIERTISKPKGSVRAPQVYVLPPPEEEMTKKQVTLTCMVTDFMPEDIYVEWTNNGKTELNYKNTEPVLDSDGSYFMYSKLRVEKKNWVERNSYSCSVVHEGLHNHHTTKSFSRTPGK
modifications: Fusion protein human C1ORF32-ECD fused to mouse IgG2a Fc
For B1, the “relapsing EAE disease” value (Study I, Control Ab, 100 ug/dose 3x/wk 2 wks from Day +21) is listed as “abrogated”. The disease severity result (Study I, treatment starting after anti-CD25 (Day +19 and 21), vs anti CD25 + control Ig) is reported as “significant decrease in disease severity”. Moreover, the disease symptoms result (Study II, anti-CD25 on days 20 and 22, before treatment from day 22) is on record as “completely inhibited diseases symptoms”. Further, the “disease course after late Treg inactivation” value (Study II, anti-CD25 on days 46 and 48, 2 weeks after completion of treatment) is given as “immediate relapse which was alleviated as the effect of anti-CD25 dropped off”.
